Source: the supplement of paper PMC10567573

B1: LCOR (parent)
chain: YKVKERLGTLKNPPKKKMKLMSG

Variants of: B1
Test: protein stability index of a GFP-peptide fusion (GPS, HEK-293T) (PSI 1-6); higher = more stable
Details: c terminus: native
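Further: lentivirally expressed fusions sorted by FACS into six bins by GFP to DsRed ratio, PSI derived from sequencing read proportions per bin multiplied by bin number.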

Point of comparison: YKVKERRGTLKNPPKKKMKLMSG [L7R], protein stability index 1.06. Against it:
- YKVKERLSTLKNPPKKKMKLMSG [G8S] — higher, 1.76
- YKVKERLGELKNPPKKKMKLMSG [T9E] — higher, 1.53
- YKVKERLGCLKNPPKKKMKLMSG [T9C] — higher, 2.2
- YKVKERLGILKNPPKKKMKLMSG [T9I] — higher, 1.5
- YKVKERLGMLKNPPKKKMKLMSG [T9M] — higher, 2.39
- YKVKERLGVLKNPPKKKMKLMSG [T9V] — higher, 2.35
- YKVKERLGWLKNPPKKKMKLMSG [T9W] — higher, 3.03
- YKVKERLGSLKNPPKKKMKLMSG [T9S] — higher, 2.19
- YKVKERLGYLKNPPKKKMKLMSG [T9Y] — higher, 2.22
- YKVKERLGGLKNPPKKKMKLMSG [T9G] — higher, 1.23
- YKVKERLGHLKNPPKKKMKLMSG [T9H] — higher, 2.33
- YKVKERLGKLKNPPKKKMKLMSG [T9K] — higher, 2.06
- YKVKERLGRLKNPPKKKMKLMSG [T9R] — higher, 1.81
- YKVKERLGDLKNPPKKKMKLMSG [T9D] — higher, 2.17
- YKVKERLGNLKNPPKKKMKLMSG [T9N] — higher, 2.45
- YKVKERLGALKNPPKKKMKLMSG [T9A] — higher, 1.96
- YKVKERLGQLKNPPKKKMKLMSG [T9Q] — higher, 2.64
- YKVKERLGLLKNPPKKKMKLMSG [T9L] — higher, 3.4
- YKVKERHGTLKNPPKKKMKLMSG [L7H] — higher, 1.84
- YKVKERWGTLKNPPKKKMKLMSG [L7W] — higher, 1.76
- YKVKERNGTLKNPPKKKMKLMSG [L7N] — higher, 2.53
- YKVKERMGTLKNPPKKKMKLMSG [L7M] — higher, 1.37
- YKVKEREGTLKNPPKKKMKLMSG [L7E] — higher, 2.04
- YKVKERFGTLKNPPKKKMKLMSG [L7F] — higher, 1.5
- YKVKERQGTLKNPPKKKMKLMSG [L7Q] — higher, 1.52
- YKVKERDGTLKNPPKKKMKLMSG [L7D] — higher, 2.56
- YKVKERAGTLKNPPKKKMKLMSG [L7A] — higher, 2.49
- YKVKERSGTLKNPPKKKMKLMSG [L7S] — higher, 1.55
- YKVKERPGTLKNPPKKKMKLMSG [L7P] — higher, 1.55
- YKVKERGGTLKNPPKKKMKLMSG [L7G] — higher, 3.22
- YKVKERYGTLKNPPKKKMKLMSG [L7Y] — higher, 1.53
- YKVKERTGTLKNPPKKKMKLMSG [L7T] — higher, 1.85
- YKVKERCGTLKNPPKKKMKLMSG [L7C] — higher, 2.75
- YKVKERKGTLKNPPKKKMKLMSG [L7K] — higher, 1.98
- YKVKERIGTLKNPPKKKMKLMSG [L7I] — higher, 2.14
- YKVKKRLGTLKNPPKKKMKLMSG [E5K] — higher, 2.21
- YKVKTRLGTLKNPPKKKMKLMSG [E5T] — higher, 2.22
- YKVKGRLGTLKNPPKKKMKLMSG [E5G] — higher, 2.44
- YKVKRRLGTLKNPPKKKMKLMSG [E5R] — higher, 1.95
- YKVKIRLGTLKNPPKKKMKLMSG [E5I] — higher, 1.75
- YKVKNRLGTLKNPPKKKMKLMSG [E5N] — higher, 1.25
- YKVKQRLGTLKNPPKKKMKLMSG [E5Q] — higher, 1.22
- YKVKFRLGTLKNPPKKKMKLMSG [E5F] — higher, 2.71
- YKVKHRLGTLKNPPKKKMKLMSG [E5H] — higher, 2.85
- YKVKPRLGTLKNPPKKKMKLMSG [E5P] — higher, 2.25
- YKVKSRLGTLKNPPKKKMKLMSG [E5S] — higher, 2.11
- YKVKWRLGTLKNPPKKKMKLMSG [E5W] — higher, 3.07
- YKVKVRLGTLKNPPKKKMKLMSG [E5V] — higher, 2.94
